Measured values taken from patent US20040180051A1 (published 2004).
Substitutions are numbered along the chain they refer to. One block for each binder: values may come before it.

How the values were obtained:
[1] = target: T1, human tissue factor (human TF) on human bladder carcinoma cells J82 (human, UniProt P13726 33-295); test: cell ELISA on fixed J82 cells;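 note: measures antigen binding in a cell ELISA on J82 cells grown one day in 96-well plates and fixed with 4% paraformaldehyde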
T1 construct: whole, on cells; Target of the cell ELISA; also called the antigen

[2] = target: T1, human tissue factor (human TF) on human …; test: cell ELISA on fixed J82 cells; reference antibody (CHO DG44 expressed)

- binding result [1]: binds
B1: humanized H chain version “a” combined with a chimeric L chain (antibody, V domains shown)
VH: QVQLLESGAVLARPGTSVKISCKASGFNIKDYYMHWVKQRPGQGLEWIGGNDPANGHSMYDPKFQGRAKLTAATSASIAYLEFSSLTNEDSAVYYCARDSGYAMDYWGQGTLVTVSS
VL: DIKMTQSPSSMYASLGERVTITCKASQDIKSFLSWYQQKPWKSPKTLIYYATSLADGVPSRFSGSGSGQDYSLTINNLESDDTATYYCLQHGESPYTFGGGTKLEIK
notes: expressed in COS-7

- binding result [1]: binds
B2: humanized H chain version “b” combined with a chimeric L chain (antibody, V domains shown)
VH: QVQLLESGAVLARPGTSVKISCKASGFNIKDYYMHWVKQRPGQGLEWIGGNDPANGHSMYDPKFQGRVTITADTSTNTAYMELSSLRSEDTAIYYCARDSGYAMDYWGQGTLVTVSS
VL: B1 VL
notes: expressed in COS-7; also called b-ch

- binding result [2]: binds
B3: chimeric ATR-5 antibody (antibody, V domains shown)
VH: EVQLQQSGTNLVRPGALVKLSCKGSGFNIKDYYMHWVKQRPEQGLEWIGGNDPANGHSMYDPKFQGKASITADTSSNTAYLQLSSLTSEDTAVYFCARDSGYAMDYWGQGTSVTVSS
VL: B1 VL
notes: Mouse V regions on human C regions; also called ch-ch; chimeric antibody

- binding result [1]: binds
B4: humanized H chain version “a” combined with the humanized L chain version “a” (antibody, V domains shown)
VH: B1 VH
VL: DIQMTQSPSSLSASVGDRVTITCKASQDIKSFLSWYQQKPGKAPKLLIYYATSLADGVPSRFSGSGSGTDFTLTISSLQPEDFATYYCLQHGESPYTFGGGTKVEIK
notes: expressed in COS-7; also called a-a

- binding result [1]: binds
B5: humanized H chain version “c” combined with a chimeric L chain (antibody, V domains shown)
VH: QVQLLESGAVLARPGTSVKISCKASGFNIKDYYMHWVKQRPGQGLEWIGGNDPANGHSMYDPKFQGRVTMLVDTSKNQFSLRLSSVTAADTAVYYCARDSGYAMDYWGQGTLVTVSS
VL: B1 VL
notes: expressed in COS-7; also called c-ch

- binding result [1]: binds
B6: humanized H chain version “e” combined with a chimeric L chain (antibody, V domains shown)
VH: B2 VH with T69S, T74E, N77K, T78I, S84N, I93V, Y95F
VL: B1 VL
notes: expressed in COS-7; also called e-ch

- binding result [1]: binds
B7: humanized H chain version “d” combined with a chimeric L chain (antibody, V domains shown)
VH: B2 VH with T74E, N77S, T91S, I93V, Y95F
VL: B1 VL
notes: expressed in COS-7; also called d-ch

- binding result [1]: binds
B8: humanized H chain version “j” combined with a chimeric L chain (antibody, V domains shown)
VH: B2 VH with I70F, T76A, S84R, E89A, I93V
VL: B1 VL
notes: expressed in COS-7; also called j-ch

- binding result [1]: binds
B9: humanized H chain version “i” combined with a chimeric L chain (antibody, V domains shown)
VH: B2 VH with N77S, A79V, Y80F, I93V
VL: B1 VL
notes: expressed in COS-7; also called i-ch

- binding result [1]: binds
B10: humanized L chain version “b” combined with a chimeric H chain (antibody, V domains shown)
VH: B3 VH
VL: B4 VL with F71Y
notes: expressed in COS-7; also called ch-b

- binding result [1]: binds
B11: H chain humanized version b/L chain humanized version b antibody (antibody, V domains shown)
VH: B2 VH
VL: B4 VL with F71Y
notes: also called b-b

- binding result [1]: binds
B12: humanized H chain version “b” combined with the humanized L chain version “a” (antibody, V domains shown)
VH: B2 VH
VL: B4 VL
notes: expressed in COS-7; also called b-a

- binding result [1]: binds
B13: humanized L chain version “c” combined with a chimeric H chain (antibody, V domains shown)
VH: B3 VH
VL: B4 VL with F71Y, F83I
notes: expressed in COS-7

- binding result [1]: binds
B14: humanized H chain version “d” combined with the humanized L chain version “b” (antibody, V domains shown)
VH: B2 VH with T74E, N77S, T91S, I93V, Y95F
VL: B4 VL with F71Y
notes: expressed in COS-7; also called d-b

- binding result [1]: binds
B15: humanized H chain version “j” combined with the humanized L chain version “b” (antibody, V domains shown)
VH: B2 VH with I70F, T76A, S84R, E89A, I93V
VL: B4 VL with F71Y
notes: expressed in COS-7; also called j-b

- binding result [1]: binds
B16: humanized H chain version “b” combined with the humanized L chain version “b2” (antibody, V domains shown)
VH: B2 VH
VL: B4 VL with G41E, L46S, F71Y
notes: expressed in COS-7; also called b-b2

- binding result [1]: binds
B17: humanized H chain version “b3” combined with the humanized L chain version “b” (antibody, V domains shown)
VH: B2 VH with K38R, R40A
VL: B4 VL with F71Y
notes: expressed in COS-7; also called b3-b

- binding result [1]: binds
B18: H chain humanized version i/L chain humanized version b antibody (antibody, V domains shown)
VH: B2 VH with N77S, A79V, Y80F, I93V
VL: B4 VL with F71Y

- binding result [1]: binds
B19: humanized H chain version “d3” combined with the humanized L chain version “b” (antibody, V domains shown)
VH: B2 VH with K38R, R40A, T74E, N77S, T91S, I93V, Y95F
VL: B4 VL with F71Y
notes: expressed in COS-7; also called d3-b

- binding result [1]: binds
B20: humanized H chain version “i” combined with the humanized L chain version “b1” (antibody, V domains shown)
VH: B2 VH with N77S, A79V, Y80F, I93V
VL: B4 VL with Y36F, A43S, L46T, F71Y
notes: expressed in COS-7; also called i-b1

- binding result [1]: binds
B21: humanized H chain version “g” combined with the humanized L chain version “b” (antibody, V domains shown)
VH: B2 VH with R67K, V68A, I70L, T74E, T76S, N77S, E82Q, T91S, I93V, Y95S
VL: B4 VL with F71Y
notes: expressed in COS-7; also called g-b

- binding result [1]: binds
B22: H chain humanized version i/L chain humanized version b2 antibody (antibody, V domains shown)
VH: B2 VH with N77S, A79V, Y80F, I93V
VL: B4 VL with G41E, L46S, F71Y
notes: also called i-b2

- binding result [1]: binds
B23: humanized L chain version “b1” combined with a chimeric H chain (antibody, V domains shown)
VH: B3 VH
VL: B4 VL with Y36F, A43S, L46T, F71Y
notes: expressed in COS-7; also called ch-b1

- binding result [1]: binds
B24: humanized L chain version “a” combined with a chimeric H chain (antibody, V domains shown)
VH: B3 VH
VL: B4 VL
notes: expressed in COS-7

- binding result [1]: binds
B25: humanized L chain version “b2” combined with a chimeric H chain (antibody, V domains shown)
VH: B3 VH
VL: B4 VL with G41E, L46S, F71Y
notes: expressed in COS-7; also called ch-b2

- binding result [1]: binds
B26: humanized H chain version “b” combined with the humanized L chain version “c” (antibody, V domains shown)
VH: B2 VH
VL: B4 VL with F71Y, F83I
notes: The construction of its expression plasmid is not described
